From the nanobody polyreactivity screen of Harvey et al. (2022) come the findings set out here.

The nature of the data set: yeast display, Sf9 membrane polyspecificity reagent, FACS + sequencing; frameworks hold sequencing errors. The gist of the method: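 Sorting gates, low and high (top ~1%), were placed on anti-HA fluorescence to track expression and on streptavidin fluorescence to track reagent binding. A clone's polyreactivity label is taken from the gate it came out of. The reagent was 10% biotinylated, detergent-solubilized Sf9 membrane, applied for 1 hour at 4 °C to galactose-induced yeast display cells.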
For the sequence “QVQLVESGGGLVQAGGSLRLSCAASGRTFLFNTMGWYRQAPGKERELVAAITRRGGSTYYADSVKGRFTISRDNAKNTVYLQMNSLKPEDTAVYYCNAPAYSPPGYYWGQGTQVTVSS”, the “polyreactivity (PSR sort gate)” value was “low polyreactivity”.
The result for “QVQLVESGGGLVQARGSLRLSCASSGSIFRFNGMGWYRQPPGKERELVATISSGGRTNYADSVKGRFTISRDNAKNTVYLQMNSLKPEDTAVYYCAARSPLRTSYYYPYYYWGQGTQVTVSS” reads “high polyreactivity”; that for “QVQLVESGGGLVQAGGSLRLSCAASGLTFDWYAMGWYRQAPGKERELVAAISWNGVSTDYADSVKGRFTISRDNAKYTVYLQMNRLKPEDTAVYYCAADPPWYLYVGFDYWGQGTQVNVSS”, “high polyreactivity”; that for “QVQLVESGGGLVQAGGSLRLSCAASGRIITYYAMGWYRQAPGKERELVAVISSVGGTYYADSVKGRFTISRDNAKNTVYLQMNSLKPEDTAVYYCAVGKIWSRRSSTSRFGYWGQGTQVTVSS”, “high polyreactivity”.
To “QVQLVESGGGLVQAGGSLRLSCAASGRIFKKNAMGWYRQAPGKERELVATITQRGGTTYYADSVKGRFTISRDNAKNTVYLQMNSLKPEDTAVYYCATEGYETWSYWYRGAYTYYYWGQGTQVTVSS” belongs “high polyreactivity”.
In the case of “QVQLVESGGGLVQAGGSLRLSCAASGFIFGYNVMGWYIQAPGKERELVASISTGGRTYYADSVKGRFTISRDNAKNTVYLQMYSLKPEDTAVYYCAARYRSYSYLYYSWGQGTQVTVSS”, the “polyreactivity (PSR sort gate)” value was “high polyreactivity”.
Regarding “QVQLLESGGGLVKAGGSLRLSCPASGIIFYEYVMGWYRQAPGKERELVAAINRSGGSKYYADSVKGRFTISRDNAKNTVYLQMNSLKPEDTAVYYCAAKPYYFYGMDYWGQGTQVTVSS”, the “polyreactivity (PSR sort gate)” value is recorded as “high polyreactivity”.
As for “QVQLVESGGGLVQAGGSLRLSCAASGSIFFQYAMGWYRQAPGKERELVAAISTGGSTNYADSVKGRFTISRDNAKNTVYLQMNSLKPEETAVYYCAAYSRYKGYQYDYWGQGTQVTVSS”, the “polyreactivity (PSR sort gate)” value is “low polyreactivity”.
With “QVQLVESGGGLVQAGGSLRLSCAASGRIFRYNVMGWYRQAPGKERELVAAITSRGGSTYYADSVKGRFTISRDNAKNTVYLQMNSLKPEDTAVYYCAAYPWEFGTYNYWGQGTQVTVSS”, the “polyreactivity (PSR sort gate)” value is “high polyreactivity”.
On to “RVQLQESGGGLVQAGGSLRLSCAPSSTISRYFYMGWYRQAPGKEREFVASITYGASTNYADSVKGRFTISRDNAKNTVYLQMNSLKPEDTAVYYCNAKQQPYGGTDYDYWGQGTQVTVSS”, for which the “polyreactivity (PSR sort gate)” value is “low polyreactivity”.
As to “QVQLVESGGGLVQAGGSLRLSCAASGSTFSIYAMGWYRQAPGKERELVAAISSDSTYYADSVKGRFTISRDNAKNSVYLQMNSLKPEDTAVYYCAADPYFPKYYYWGQGTQVTVSS”, the “polyreactivity (PSR sort gate)” value is “low polyreactivity”.
To “QVQLVESGGGLVQAGGSLRLSCAASGFIFRHNAMGWYRPAPGTEREFVAAISISGGSTYYADSVKGRFTISRDNAKNTVYLQMNSLKPEDTAVYYCNARSLGNTYLLYDYWGQGTQVTVSS” belongs “low polyreactivity”; to “QVQIVESVGGLDQAGGSLRLSCAASGSKFVYYAIGSYRQAPAKERELVAAIDVSDGGTYYADSVKVRFSISRDNAKNTVYLQMNSLKPEVTAVYYCAADQGIDVPFICYDYWGQGTQVTVSS”, “high polyreactivity”.
To “QVQLVESGGGLVQAGGSLRLSCAASGLTFIYYAMGWYRQAPGKEWELVAAISVSGGSTYYADSVKGRFTISRDNAKNTVYLQMNSLKPEDTAVYYCAADWFVHKPRYHSTFDFWGQGTQVTVSS” belongs “low polyreactivity”; to “QVQLVESGGGLVQAGGSLRLSCAASGFNFYSNAMGWYRQEPGKERELVADINRGGTSTYYADSVKGRFTISRDNAKNTVYLQMNSLKPEDTAVYYCNAGLRYRSRLWNIYWYDYWGQGTQVTVSS”, “high polyreactivity”; to “QVQLVESGGGLVQAGGSLRLSCAASGSTFRNNAMGWYRQAPGKETELVAAISFSSGRTYYADSVKGRFTISRDYAKNTVYLQMNSLKPEDTAVYYCAALQYRRRPYGAVERYDYWGQGTQVTVSS”, “high polyreactivity”.
The result for “QVQLVESGGGLVQAGGSLRLSCAASGRTFSQYAMGWYRPAPGKERELVAAITRSGSRTYYADSVKGRFTISRDNAKNTVYLQMNSLKPEDTAVYYCAADGHAGYPIDEYYYWGQGTQVTVSS” reads “high polyreactivity”.
For “QVQLVESGGGLVQAGGSLGLSCAATGSIFNPYAMGWYRQAPGKVRELVAAISSTGSTYYADSVKGRFTISRDNAKNTVYLQMISLKPEDTAVYYCAADWYWYWFSTYDYWGQGTEVTVSS”, the “polyreactivity (PSR sort gate)” value is on record as “low polyreactivity”.
Regarding “QVQLVESGGGLVQAGGSLRLSCAASGRIFVIYGMGWYRQAPGKERELVAAIRWTGGSTYFADSVKGRFTISRDNAKNTVYLQMNSLKPEDTAVYYCNAGSDRAIWPTHDYWGQGTQVTVSS”, the “polyreactivity (PSR sort gate)” value is listed as “low polyreactivity”.
To “QVQLVESGGGLVQAGGSLRLSCAASGFTFFGYAMGWYRQEPGKERELVAAISTIDGDTYYADSVKGRFTISRDNAKNSFYFLMNSLKPEDTAVYYCAADDYIDGDDYWGQGTQVTVSS” belongs “low polyreactivity”; to “QVQLVESGGGLVQAAGSLRLSCAASGSIFSANSMGWYRQAPGKERELVAAISGRGTRTYYADSVKGRFTISRDNAKYTVYLQMNSLKPEDTAVYYCNAARDRTSPEYDYWGQGTQVTVSS”, “high polyreactivity”.
The result for “QVQLVESGGGLVQAGGSLRLSCAASGFTFYTYAMGWYRQEPGKEREMVATISGSGGDTNYADSVKGRFTISRDNAKNTGYLQMDSLKPEDTAVYYCAAETQSVWSGFYYWGQGTQVTVSS” reads “low polyreactivity”.
The result for “QVQLVESGGGLVQAGGSLRLSCAASGRIFAYYAMGWYRQAPGKERELVAAINTSGAPTNYADSVKGRFTISRDNAKNTVYLQMISLKPEDTAVYYCAARRARYHVEYYYWGQGTQVTVSS” reads “high polyreactivity”.
For the sequence “QVQLVESGGGLVQAGGSLRLSCAASGGIDYTNAMGWYRQAPGKERELVAAIRKNGDSTNYADSVKGRFTISRDNAKNTVYLQMNSLKPEDTAVYYCNAELWPWAYDYWGQGTQVTVSS”, the “polyreactivity (PSR sort gate)” value is recorded as “low polyreactivity”.
As to “QVQLVESGGGLVQAGGSLRLSCAASGRTFNYYAMGWSRQAPGKERELVAAITSGGRTNYADSVKGRFTISRDNAKNTVYLQMNSLKPEDTAVYYCATEYYRYRWVGAFRYPVYYWGQGTQVTVSS”, the “polyreactivity (PSR sort gate)” value was “low polyreactivity”.
To “QVQLVESGGGLVQAGGSLRLICAASGRISAFNAMGWYRQAPGKERELVAAINVSGGNTYYADSVKGRFTISRDNAKNTVYLQMNSMKPEDTAVYYCAAERRRWGLDYYYWGQGTQVTVSS” belongs “high polyreactivity”.
Turning to “QVQLVESGGGLVQAGGSLRLSCAASGRIFSDYAMGWYIQAPGKERELVAAISWGGGRTYYADSVKGRFTISRDNAKNTVYLQMNSLKPEDTAVYYCNRGTVNSWARGYWGQGTQVTVSS”, the “polyreactivity (PSR sort gate)” value is on record as “high polyreactivity”.
Take “QVQLVESVGGLVQAGGSLRLSCAASGRIFGVYAMGWYRQAPGKERELVAAISEGGGSTNYADSVKGRFTISRDNAKNTVYLQMNSLKPEDTAVYYCAATYRTGVRRYYSWGQGTQVTVSS”: the “polyreactivity (PSR sort gate)” value is recorded as “low polyreactivity”.
The result for “QVQLVESGGGLVQAGGSLRLSCAASGIILGKNAMGWYRQAPGNERELVASITSGAGITYYADSVKGRFTISRDNAKNTVNLQINSLKPEDTAVYYCAADWSGDYFTDGYWGQGPQVTVSS” reads “low polyreactivity”; that for “QVQLVESGGGLVQAGGSLRVSCAASGFIFSYSAMGWYRQAPGKERELVAAISRSGGRTYYADSVKGRFTISRDNAKNTVYLQMNSLKPEDTAVYYCAAPVSLRPIYDYWGHGTQVTVSS”, “high polyreactivity”.
To “QVQLVESGGGLVQAGGSLRLSCAASGRTFYRYAMGWYRQAPGKEREFVATISRSGGSTFYADSVKGRFTISRDNAKNTVYLQMNSLKPEDTAVYYWAAVGWYPYQMVYWGQGTQVTVSS” belongs “high polyreactivity”; to “QVQLLESGGGLVQAGGSLRLSCAASGSIFVGYAMGWYRPAPGKERELVASITTPGGSTHYADSVKGRFTISRDNAKNTVYLQMNSLKPEDTAVYYCAADSLSNGVLQYLPGYDYWGQGTQVTVSS”, “low polyreactivity”.
With “QVQLVESGGGLVQAGGSLRLSCAASGRTIKYYAMGWDRQAPGKERELVAVISWSGGSTYYADSVKGRFTISRDNAKNTVYLQMISLKPEDTAVYYCNAYVYAYYAGYNYWGQGTQVTVSS”, the “polyreactivity (PSR sort gate)” value is on record as “high polyreactivity”.
“QVQLVESGGGLVQAGGSLRLSCAASGRTFYYAMGWYRQAPGKERELVAAISWSGGRTYYADSVKARFTISRDNAKNTVYLQMNSLKPEDTAVYFCAAIYYYSPRDGFIYWGQGTQVTVSS”: the “polyreactivity (PSR sort gate)” value is recorded as “high polyreactivity”.
To “QVKLVESGGGLVQAGGSLRLSSDASGSIFLYNAMGWYRQAPGKERELVADISWSGGSTYYADSVKGRFTISRVNEKYTVYLQMNSLKPEDTAVYYCNAVVYWFSTSYVYTYDYWGQGTQVTVSS” belongs “high polyreactivity”; to “QVQLVESGGGLVQAGGSLRLSCAASGFTFGRYAMGWYRQAPGKERELVAGISSGGRTNYADSVKGRFTISRDNAKNTVYLQMNSLKPEDTAVYYCNARWYRYPPRVRLYYWGQGTQVTVSS”, “high polyreactivity”; to “QVQLVESGGGLVQAGGSLRLSCAASGYIFYFNAMGWYRQAPGKERELVAVISDRDDSTYYADSVKGRFTISRDNAKNTVYLQMNSLKPEDTAVYYCAADGDTYVDDPYDYWGQGTQVTVSS”, “low polyreactivity”.
Take “HVQLVESGGGLVQAGGSLRLSCAASGSIFSGNAMGWSRQAPGKERELVAAIDWSGDSTYYADSVKGRFTLSRDNAKNTVYLQMNSLKPEDTAVYYCNTVSFSWGYSAYDYWGQGTQVTVSS”: the “polyreactivity (PSR sort gate)” value is “low polyreactivity”.
In the case of “QVQLVESGGGLVQAGGSHRLSSAASVRIFRGYAMGWYRPAPGKERELVAVISYSGTRTYYADSVKGRFTISRDNAKNTVYLQMNSLKPEDTAVYYCNASANGFKEGYWGQGTQVTVSS”, the “polyreactivity (PSR sort gate)” value is “high polyreactivity”.
To “QVQLVESGGGLVQAGGSLRLSCAASGFIFGTYVMGWYRQAPGKERELVAAISESGGRTYYADSVKGRFTISRDNAKNTVYLQMNSLKPEDTADYYCAKLRHIRFHYYYGYQSYYYWVQGTQVTVSS” belongs “high polyreactivity”.
